Measured values: US20230038638A1, “COMPLEMENT FACTOR I-RELATED COMPOSITIONS AND METHODS” (published 2023)
Residue numbers refer to the chain shown, from its start.

Columns and labels:
C3b [1] = target: T1, C3b (human, UniProt P01024)
C3b [2] = target: T1, C3b; remark: listed apart in the source
[3] = target: soluble human C3b (human) (UniProt P01024)
human C4b (human) [4] = target: T2, human C4b (human) (UniProt P0C0L5)
T2 sequence: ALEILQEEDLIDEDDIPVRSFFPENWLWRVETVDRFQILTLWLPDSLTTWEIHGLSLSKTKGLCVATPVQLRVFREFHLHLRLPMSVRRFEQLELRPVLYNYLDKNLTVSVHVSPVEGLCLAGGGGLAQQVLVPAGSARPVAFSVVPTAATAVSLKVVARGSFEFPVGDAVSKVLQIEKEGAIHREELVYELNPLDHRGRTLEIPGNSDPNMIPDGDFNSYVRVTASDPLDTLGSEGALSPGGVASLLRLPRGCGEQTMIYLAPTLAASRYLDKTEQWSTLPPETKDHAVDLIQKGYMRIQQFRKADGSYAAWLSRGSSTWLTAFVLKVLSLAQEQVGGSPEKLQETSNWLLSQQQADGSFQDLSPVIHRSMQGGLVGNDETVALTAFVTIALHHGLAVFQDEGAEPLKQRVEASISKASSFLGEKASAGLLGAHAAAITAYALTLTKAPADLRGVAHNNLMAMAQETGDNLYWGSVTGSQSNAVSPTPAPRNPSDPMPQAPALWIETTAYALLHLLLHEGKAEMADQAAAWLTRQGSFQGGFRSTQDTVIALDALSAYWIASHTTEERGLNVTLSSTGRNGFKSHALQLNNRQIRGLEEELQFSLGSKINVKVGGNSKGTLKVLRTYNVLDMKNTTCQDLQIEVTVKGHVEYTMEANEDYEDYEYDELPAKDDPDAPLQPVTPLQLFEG

human C4b (human) [5] = target: T3, human C4b (human) (UniProt P0C0L4)
T3 sequence: T2 sequence with T151A, G317D, L364P, S365C, I368L, H369D, S420N, A451V, R454L, A530S

human C4b (human) [6] = target: T3, human C4b (human); remark: listed apart in the source
[7] = target: soluble human C3b (human) (UniProt P01024); remark: listed apart in the source
C4b = target: T4, C4b (human, UniProt P0C0L4)
T4 sequence: T2 sequence with T151A, G317D, L364P, S365C, I368L, H369D, S420N, A451V, R454L, A530S

human C4b (human) [8] = target: T2, human C4b (human); remark: listed apart in the source

Row | Substance | C3b cleavage rate, kmut/kwt (C3b [1]) | C3b cleavage, % Activity (C3b [2]) [%] | iC3b Screen Ref Fold (fold vs CFI-HSA wild type) [3] | C4b Screen Ref Fold (fold vs CFI-HSA wild type) (human C4b (human) [4]) | iC3b EC50 [7] [nM] | other results
1 | CFI-HSA variant 456-… (SEQ ID NO: 9)-465 --> … (SEQ ID NO: 10) (human trypsin autolysis loop swap) (enzyme) | 0 | 18 | – | – | – | –
2 | CFI-HSA variant 514-MDANNVT (SEQ ID NO: 13)-520 → NG (hTrypsin 200-loop swap) (enzyme) | – | 11 | – | – | – | –
3 | CFI-HSA variant D26A (enzyme) | – | 94 | 0.34 | – | – | –
4 | CFI-HSA variant D425K (enzyme) | 1 | 105 | 1.34 | 0.42 | – | C4b Screen Ref Fold (fold of CFI-HSA wild type) (human C4b (human) [5]): 2.86; iC3b Screen Ref Fold (fold of CFI-HSA wild type) [3]: 0.11
5 | CFI-HSA variant E38A (enzyme) | – | 79 | 0.43 | 0.09 | – | –
6 | CFI-HSA variant E38A + D425R (enzyme) | 1 | – | – | – | – | –
7 | CFI-HSA variant E457G (enzyme) | 3 | – | 1.58 | 5.37 | 11.1 | C4c EC50 (nM) (human C4b (human) [6]): 138 nM
8 | CFI-HSA variant E457G + E461Q + R462K + F464Y (mouse CFI autolysis loop swap) (enzyme) | 2 | – | – | – | – | –
9 | CFI-HSA variant E457G-E461Q-F464Y (enzyme) | – | 106 | – | – | – | –
10 | CFI-HSA variant E457G; E461Q; N531G with hCR1; CCP15; CCP16; CCP17 C-terminal fusion (enzyme) | – | – | – | – | – | C4c No Cofactor EC50 (C4b cleavage, C4c ELISA) (C4b): 77.6 nM
11 | CFI-HSA variant E457G; N531G; P535G with hCR1; CCP15; CCP16; CCP17 C-terminal fusion (enzyme) | – | – | – | – | – | C4c No Cofactor EC50 (C4b cleavage, C4c ELISA) (C4b): 44.8 nM
12 | CFI-HSA variant E461Q (enzyme) | 2 | – | 1.94 | 5.47 | 12 | C4c EC50 (nM) (human C4b (human) [6]): 121 nM
13 | CFI-HSA variant F29A (enzyme) | – | 16 | 0.05 | 0.17 | – | –
14 | CFI-HSA variant K14A (enzyme) | – | 93 | 0.73 | 0.3 | – | C4c EC50 (nM) (human C4b (human) [6]): 401 nM
15 | CFI-HSA variant K326A + R327A (enzyme) | 0 | 58 | – | – | – | –
16 | CFI-HSA variant L307G (enzyme) | 1 | 91 | 0.79 | 2.85 | 39.2 | C4c EC50 (nM) (human C4b (human) [6]): 316 nM
17 | CFI-HSA variant M220A + K221Q (enzyme) | – | 92 | – | – | – | –
18 | CFI-HSA variant N531A (enzyme) | 1 | – | 1.21 | 0.31 | 24.3 | C4c EC50 (nM) (human C4b (human) [6]): 278 nM

Row | Substance | C3b cleavage rate, kmut/kwt (C3b [1]) | C3b cleavage, % Activity (C3b [2]) [%] | iC3b Screen Ref Fold (fold vs CFI-HSA wild type) [3] | C4b Screen Ref Fold (fold vs CFI-HSA wild type) (human C4b (human) [4]) | iC3b EC50 [7] [nM] | other results
19 | CFI-HSA variant N531G (enzyme) | 1 | – | 2.1 | 6.26 | 8.3 | C4c EC50 (nM) (human C4b (human) [6]): 58.4 nM
20 | CFI-HSA variant P535A (enzyme) | 1 | – | 1.01 | 1.86 | – | –
21 | CFI-HSA variant R35A (enzyme) | – | 47 | 0.12 | 0.06 | – | –
22 | CFI-HSA variant R557A (enzyme) | 0 | 21 | 0.04 | 1.74 | > 500 | C4c EC50 (nM) (human C4b (human) [6]): 327 nM; C4b Screen Ref Fold (fold relative to CFI-HSA wild type) (human C4b (human) [4]): 1.72; iC3b Screen Ref Fold (fold relative to CFI-HSA wild type) [3]: -0.01
23 | CFI-HSA variant R557A; N531M; Y403F; K504Y (enzyme) | – | – | – | – | 334 | C4c EC50 (human C4b (human) [8]): 76.3 nM; C4b Screen Ref Fold (fold of CFI-HSA wild type) (human C4b (human) [5]): 3.28; iC3b Screen Ref Fold (fold of CFI-HSA wild type) [3]: 0.03
24 | CFI-HSA variant R557A; N531M; Y403F; K504Y; E457G; E461Q (enzyme) | – | – | – | – | 79.4 | C4c EC50 (human C4b (human) [8]): 26.3 nM; C4b Screen Ref Fold (fold of CFI-HSA wild type) (human C4b (human) [5]): 3.97; iC3b Screen Ref Fold (fold of CFI-HSA wild type) [3]: 0.21
25 | CFI-HSA variant S250A (enzyme) | – | 82 | 0.38 | 0.07 | – | –
26 | CFI-HSA variant S250A + D425R (enzyme) | 1 | – | – | – | – | –
27 | CFI-HSA variant S250L (enzyme) | – | -4 | 0.09 | – | – | –
28 | CFI-HSA variant S507A (active site mutant) (enzyme) | – | 0 | – | – | – | –
29 | CFI-HSA variant T377G; N422K (enzyme) | – | – | – | – | 4.1 | C4c EC50 (human C4b (human) [8]): 37.4 nM; C4b Screen Ref Fold (fold of CFI-HSA wild type) (human C4b (human) [5]): 2.25; iC3b Screen Ref Fold (fold of CFI-HSA wild type) [3]: 2.55
30 | CFI-HSA variant T377G; N422K; E457G; E461Q; N531G (enzyme) | – | – | – | – | 3.7 | C4c EC50 (human C4b (human) [8]): 3.5 nM; C4b Screen Ref Fold (fold of CFI-HSA wild type) (human C4b (human) [5]): 3.92; iC3b Screen Ref Fold (fold of CFI-HSA wild type) [3]: 0.78
31 | CFI-HSA variant Y20A (enzyme) | – | 7 | 0.05 | 0.14 | – | –
32 | CFI-HSA variant Y20F (enzyme) | – | 80 | 0.67 | 0.27 | – | –
33 | CFI-HSA variant Y20F + D425R (enzyme) | 1 | – | – | – | – | –
34 | CFI-HSA variant Y408L (enzyme) | 1 | 104 | 1.4 | 1.46 | 21.3 | C4c EC50 (nM) (human C4b (human) [6]): > 1000 nM
35 | CFI-HSA variant Δ(K1-P305) (HSA-SPD) (enzyme) | – | 35 | – | – | – | –
36 | CFI-HSA variant ΔC-term (Δ558-PFISQYNV (SEQ ID NO: 14)-565) (enzyme) | – | 7 | 0.03 | 0.11 | – | –
